Assay results: patent US20240350588A1 (SUNSHINE LAKE PHARMA, published 2024)
Where a chain is given by its changes, count along the chain named.

T1: human GFRAL (UniProtKB-Q6UXVO) (human, UniProt Q6UXV0 19-394)
T1 sequence (looked up): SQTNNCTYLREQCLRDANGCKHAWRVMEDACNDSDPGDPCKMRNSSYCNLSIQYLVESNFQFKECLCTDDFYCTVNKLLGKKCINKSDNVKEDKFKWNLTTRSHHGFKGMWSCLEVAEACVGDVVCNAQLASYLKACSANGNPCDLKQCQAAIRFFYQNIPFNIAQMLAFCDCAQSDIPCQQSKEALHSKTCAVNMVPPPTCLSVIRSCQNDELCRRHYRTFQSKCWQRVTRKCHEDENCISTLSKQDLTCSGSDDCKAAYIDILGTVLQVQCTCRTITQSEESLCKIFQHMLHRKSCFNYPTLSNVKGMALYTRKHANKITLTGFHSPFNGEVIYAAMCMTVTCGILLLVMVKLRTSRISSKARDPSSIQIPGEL

B1: Fc-GDF15 fusion protein M51 (Fc fusion)
chain: APEAAGGPSVFLFPPKPKDTLMISRTPEVTCVVVDVSQEDPEVQFNWYVDGVEVHNAKTKPREEQFNSTYRVVSVLTVLHQDWLNGKEYKCKVSNKGLPSSIEKTISKAKGQPREPQVYTLPPSQEEMTKNQVSLTCLVKGFYPSDIAVEWESNGQPENNYKTTPPVLDSDGSFFLYSRLTVDKSRWQEGNVFSCSVMHEALHNHYTQNSLSLSLGGGGGSGGGGSAPAPAPAPAPAPAPAPAPAPGGGGSGGGGSDHCPLGPGRCCRLHTVRASLEDLGWADWVLSPREVQVTMCIGACPSQFRAANMHAQIKTSLHRLKPDTVPAPCCVPASYNPMVLIQKTDTGVSLQTYDDLLAKDCHCI
B2: Fc-GDF15 fusion protein M6 (Fc fusion)
chain: B1 chain with N209Q
B3: Fc-GDF15 fusion protein M5 (Fc fusion)
chain: B1 chain with N209D
B4: Fc-GDF15 fusion protein M8 (Fc fusion)
chain: B1 chain with E126K, N209K
B5: Fc-GDF15 fusion protein M7 (Fc fusion)
chain: B1 chain with N209A
B6: Fc-GDF15 fusion protein M3 (Fc fusion)
chain: APEAAGGPSVFLFPPKPKDTLMISRTPEVTCVVVDVSQEDPEVQFNWYVDGVEVHNAKTKPREEQFNSTYRVVSVLTVLHQDWLNGKEYKCKVSNKGLPSSIEKTISKAKGQPREPQVYTLPPSQEEMTKNQVSLTCLVKGFYPSDIAVEWESNGQPENNYKTTPPVLDSDGSFFLYSRLTVDKSRWQEGNVFSCSVMHEALHNHYTQESLSLSLGGGGGSGGGGSAPAPAPAPAPAPAPAPAPAPGGGGSGGGGSGDHCPLGPGRCCRLHTVRASLEDLGWADWVLSPREVQVTMCIGACPSQFRAANMHAQIKTSLHRLKPDTVPAPCCVPASYNPMVLIQKTDTGVSLQTYDDLLAKDCHCI
B7: Fc-GDF15 fusion protein M50 (Fc fusion)
chain: B6 chain with E126Q, E209Q

These binders were tested against T1, human GFRAL (UniProtKB-Q6UXVO) (assay: cell-based or functional assay).

Relative activity ratio (native GDF15 EC50: Fc-GDF15 construct EC50), ERK1/2 phosphorylation HTRF in HEK293T cells expressing human GFRAL and RET [ratio]	Binder
3.16	B1
2.71	B2
2.47	B3
1.69	B4
3.16	B5
4.53	B6
1.5	B7
